Changes are numbered by the printed parent chain. Like-named read-outs stand apart in the source and are kept apart here.
What was measured:
[1] = target: T1, PstS1 (Rv0934), recombinant, wild type (Mycobacterium tuberculosis, UniProt P9WGU1); assay: SPR
[2] = target: T1, PstS1 (Rv0934), recombinant, wild type; assay: SPR; remark: listed apart in the source

T1 sequence (P9WGU1 25-374): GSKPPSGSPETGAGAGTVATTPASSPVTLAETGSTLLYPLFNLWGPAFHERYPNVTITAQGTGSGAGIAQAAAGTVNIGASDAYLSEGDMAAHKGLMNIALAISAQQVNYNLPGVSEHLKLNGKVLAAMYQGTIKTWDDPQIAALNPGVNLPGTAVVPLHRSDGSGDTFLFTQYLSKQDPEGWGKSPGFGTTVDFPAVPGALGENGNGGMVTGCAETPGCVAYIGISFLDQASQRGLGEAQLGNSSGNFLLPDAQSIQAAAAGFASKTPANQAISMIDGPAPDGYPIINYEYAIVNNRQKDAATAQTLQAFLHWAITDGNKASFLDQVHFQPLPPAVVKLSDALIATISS

B1: mAb p4-163 (human IgG1) (antibody, V domains shown)
VH: EVQLVESGGGLVKPGGSLRLSCAASGFTFESHRMHWVRQAPGKGLEWVSSIISSRTYIYYADSVKGRFTISRDNSRNSLFLQMNSLRAEDTAVYYCARGDYYYDGVASDPHFDNWGQGTLVTVSS
VL: QSVLTQPPSASGTPGQRVTISCSGGRSNIGSNYVYWFQQLPGTAPQLLIYRNIQRPSGVPARFSGSKSGTSASLAISGLRSEDEADYYCATWDDSLSGVVFGGGTKVTVL
- Kd [1]: 4.45 nM

B2: mAb p4-170 (human IgG1) (antibody, V domains shown)
VH: B1 VH with E30S, R76G, A88V
VL: B1 VL with P7T, G25S, L40F, T43A, G69D, D86H, T91A
- Kd [1]: 1.34 nM

B3: p4-36gl, predicted germline version of mAb p4-36 (antibody, V domains shown)
VH: EVQLVESGGGLVQPGRSLRLSCTASGFTFGDYAMSWVRQAPGKGLEWVGFIRSKAYGGTTEYAASVKGRFTISRDDSKSIAYLQMNSLKTEDTAVYYCTGPRPYYDSSGYYPYYFDYWGQGTLVTVSS
VL: QSALTQPRSVSGSPGQSVTISCTGTSSDVGGYNYVSWYQQHPGKAPKLMIYDVSKRPSGVPDRFSGSKSGNTASLTISGLQAEDEADYYCCSYAGSYTYVVFGGGTKLTVL
- Kd [2]: 6.85 nM

Source: PMC7840946 (2021)
